Reference: US20190352387A1 (Chugai, published 2019)
Residue numbers refer to the chain shown, from its start. Blank lines part the entries; values can stand above or below the binder they belong to.

Key:
[1] = target: T1, Recombinant human sclerostin (human, UniProt Q9BQB4 24-213); assay: SPR; captured antibody (SG1/SK1 constant regions), recombinant human SOST as analyte; response normalised by the capture level of the antibody [panel A-B-B]
T1 construct: Whole entry as named; Secreted recombinant protein purified from FreeStyle293-F conditioned medium; also called human-SOST; Human SOST
T1 sequence: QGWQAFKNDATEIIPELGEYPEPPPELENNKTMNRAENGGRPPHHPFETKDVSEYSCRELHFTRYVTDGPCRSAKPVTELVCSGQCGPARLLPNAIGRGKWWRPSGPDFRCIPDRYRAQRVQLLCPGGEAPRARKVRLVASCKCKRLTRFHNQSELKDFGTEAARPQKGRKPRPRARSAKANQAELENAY

[2] = target: T1, Recombinant human sclerostin; assay: SPR; captured antibody (SG1/SK1 constant regions), recombinant human SOST as analyte; response normalised by the capture level of the antibody [panel B-A-B]
[3] = target: T1, Recombinant human sclerostin; assay: SPR; captured antibody, recombinant human SOST as analyte; response normalised by the capture level of the antibody [panel abL063]
[4] = target: T1, Recombinant human sclerostin; assay: SPR; captured antibody (SG1/SK1 constant regions), recombinant human SOST as analyte; response normalised by the capture level of the antibody [panel B-B-A]
[5] = target: T2, Recombinant mouse sclerostin (mouse, UniProt Q99P68 24-211); assay: cell-based or functional assay
T2 sequence: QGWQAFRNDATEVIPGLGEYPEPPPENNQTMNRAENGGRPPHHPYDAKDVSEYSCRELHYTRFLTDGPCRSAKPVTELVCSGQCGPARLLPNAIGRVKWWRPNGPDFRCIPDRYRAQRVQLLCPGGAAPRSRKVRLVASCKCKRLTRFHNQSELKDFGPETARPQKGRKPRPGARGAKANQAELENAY

[6] = target: T2, Recombinant mouse sclerostin; assay: cell-based or functional assay; remark: listed apart in the source
[7] = target: T3, Recombinant cynomolgus monkey sclerostin (cynomolgus monkey, UniProt Q9BG78 24-213 (Chlorocebus aethiops entry)); assay: cell-based or functional assay
T3 chain: T1 sequence with P70Q, E129A, T161P, S178G

[8] = target: T1, Recombinant human sclerostin; assay: SPR; captured antibody (SG1/SK1 constant regions), recombinant human SOST as analyte; response normalised by the capture level of the antibody [panel A-A-B]
[9] = target: T1, Recombinant human sclerostin; assay: SPR (Biacore), dissociation at pH 5.8 of complex formed at pH 7.4
Protocol: (§1) The affinity of anti-sclerostin variants binding to human, cynomolgus monkey (cyno), rat, or mouse sclerostin at pH 7.4 and pH 5.8 were determined at 37 degrees C. using Biacore T200 instrument (GE Healthcare). Anti-human Fc (GE Healthcare) was immobilized onto all flow cells of a CM4 sensor chip using amine coupling kit (GE Healthcare). All antibodies and analytes were prepared in ACES pH7.4 or pH 5.8 buffer containing 20 mM ACES, 150 mM NaCl, 1.2 mM CaCl₂, 0.05% Tween 20, 0.005% NaN₃. Each antibody was captured onto the sensor surface by anti-human Fc. […] Sensor surface was regenerated each cycle with 3M MgCl₂.
(§2) The pH dependent interaction assessment was determined by a modified Biacore assay. Briefly, an additional dissociation phase at pH5.8 was integrated into the Biacore assay immediately after dissociation phase at pH7.4. This is to assess the pH-dependent dissociation between antibody and antigen from the complexes formed at pH7.4. The dissociation rate at pH5.8 buffer was determined by processing and fitting data using Scrubber 2.0 (BioLogic Software) curve fitting software.

[10] = target: T1, Recombinant human sclerostin; assay: cell-based or functional assay
[11] = target: T1, Recombinant human sclerostin; assay: SPR (Biacore T200), 37 C, dissociation at pH 5.8 of complex formed at pH 7.4
Protocol: as §1, §2

[12] = target: T3, Recombinant cynomolgus monkey sclerostin; assay: as above
Protocol: as §1, §2

[13] = target: T4, Recombinant rat sclerostin (rat, UniProt Q99P67 29-213); assay: as above
T4 construct: Whole entry as named; also called rat-SOST
T4 sequence: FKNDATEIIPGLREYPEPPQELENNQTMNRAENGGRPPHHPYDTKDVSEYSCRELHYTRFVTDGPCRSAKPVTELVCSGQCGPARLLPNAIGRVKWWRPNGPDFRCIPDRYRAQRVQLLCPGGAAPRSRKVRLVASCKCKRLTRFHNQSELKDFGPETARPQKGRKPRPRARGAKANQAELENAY
Protocol: as §1, §2

[14] = target: T2, Recombinant mouse sclerostin; assay: as above
Protocol: as §1, §2

binding result [1]: binds
B1: mabB heavy chain combined with light chain variant A-B-B (antibody, human IgG1, kappa, V domains shown)
VH: QVQLVQSGAEVKKPGASVKVSCKVSGFPIKDTFQHWVRQAPGKGLEWMGWSDPEIGDTEYASKFQGRVTMTEDTSTDTAYMELSSLRSEDTAVYYCATGDTTYKFDFWGQGTTVTVSS
VL: DIQMTQSPSSLSASVGDRVTITCRASQDISNYLNWYQQKPGKAPKLLIYWASTRWTGVPSRFSGSGSGTDFTLTISSLQPEDFATYYCQQYSDYPWTFGGGTKVEIKR
notes: also called A-B-B with the mabB heavy chain

binding result [2]: binds
B2: mabB heavy chain combined with light chain variant B-A-B (antibody, human IgG1, kappa, V domains shown)
VH: B1 VH
VL: DIQMTQSPSSLSASVGDRVTITCKASQDVHTAVAWYQQKPGKAPKLLIYYTSRLLSGVPSRFSGSGSGTDFTLTISSLQPEDFATYYCQQYSDYPWTFGGGTKVEIKR
notes: also called B-A-B with the mabB heavy chain

binding result [3]: binds
B3: mabB heavy chain combined with light chain variant abL063 (antibody, human IgG1, kappa, V domains shown)
VH: B1 VH
VL: B1 VL with N31T, Y32A, N34A, R54L, T56S, Y91G, S92D, D93T, Y94L, W96Y
notes: also called abL063 with the mabB heavy chain

binding result [4]: binds
B4: mabB heavy chain combined with light chain variant B-B-A (antibody, human IgG1, kappa, V domains shown)
VH: B1 VH
VL: DIQMTQSPSSLSASVGDRVTITCKASQDVHTAVAWYQQKPGKAPKLLIYWASTRWTGVPSRFSGSGSGTDFTLTISSLQPEDFATYYCQQGDTLPYTFGGGTKVEIKR
notes: also called B-B-A with the mabB heavy chain

MFI of pHrodo-Red-labelled mouse sclerostin taken up into MDCK cells expressing human Fc gamma receptor IIB and human FcRn (flow cytometry) [5]: 2130 MFI
IC50 (read off the curve); Wnt1-induced TCF/LEF luciferase reporter in HEK293T cells, % Inhibition of mouse SOST [6]: ~10 µg/mL
B5: mabB//mabA_pH3-BS01 (bispecific antibody, human IgG1, kappa)
heavy 1: QVQLVQSGAEVKKPGASVKVSCKVSGFPIKHHFQHWVRQAPGKGLEWMGWSDPEIGDTEYASKFQGRVTMTEDTSTDTAYMELSSLRSEDTAVYYCATGHTTYKFDFWGQGTTVTVSSASTKGPSVFPLAPSSRSTSESTAALGCLVKDYFPEPVTVSWNSGALTSGVHTFPAVLQSSGLYSLSSVVTVPSSSLGTKTYTCNVDHKPSNTKVDKRVEPKSCDKTHTCPPCPAPELLGGPSVFLFPPKPKDTLMISRTPEVTCVVVDVSQEDPEVQFNWYVDGVEVHNAKTKPREEQFNSTYRVVSVLTVLHQDWLNGKEYKCKVSNKGLPSSIEKTISKAKGQPREPQVYTLPPSREEMTKNQVSLTCLVKGFYPSDIAVEWESNGQPENNYKTTPPYLDSDGSFFLYSKLTVDKSRWQQGNVFSCSVMHEALHNHYTQESLSLSP
light 1: DIQMTQSPSSLSASVGDRVTITCKASQDVHTAVAWYQQKPGKAPKLLIYWASTRWTGVPSRFSGSGSGTDFTLTISSLQPEDFATYYCQQYSDYHWTFGGGTKVEIKRTVAAPSVFIFPPSDEQLKSGTASVVCLLNNFYPREAKVQWKVDNALQSGNSQESVTEQDSKDSTYSLSSTLTLSKADYEKHKVYACEVTHQGLSSPVTKSFNRGEC
heavy 2: EVQLVQSGAEVKKPGASVKVSCKASGYTFTDYNMHWVRQAPGQGLEWMGEINPHSGHAGYNQKFKGRVTMTTDTSTSTAYMELRSLRSDDTAVYYCARLHYDDIHDDWYFDVWGQGTTVTVSSASTKGPSVFPLAPSSRSTSESTAALGCLVKDYFPEPVTVSWNSGALTSGVHTFPAVLQSSGLYSLSSVVTVPSSSLGTKTYTCNVDHKPSNTKVDKRVEPKSCDKTHTCPPCPAPELLGGPSVFLFPPKPKDTLMISRTPEVTCVVVDVSQEDPEVQFNWYVDGVEVHNAKTKPREEQFNSTYRVVSVLTVLHQDWLNGKEYKCKVSNKGLPSSIEKTISKAKGQPREPQVYTLPPSRKEMTKNQVSLTCLVKGFYPSDIAVEWESNGQPENNYKTTPPYLDSDGSFFLYSKLTVDKSRWQQGNVFSCSVMHEALHNHYTQKSLSLSP
light 2: not shown

MFI of pHrodo-Red-labelled mouse sclerostin taken up into MDCK cells expressing human Fc gamma receptor IIB and human FcRn (flow cytometry) [5]: 2430 MFI
IC50 (read off the curve); Wnt1-induced TCF/LEF luciferase reporter in HEK293T cells, % Inhibition of mouse SOST [6]: ~8 µg/mL
B6: mabB//mabA_pH1-BS01 (bispecific antibody, human IgG1, kappa)
heavy 1: B5 heavy 1 with H100D
light 1: B5 light 1
heavy 2: B5 heavy 2
light 2: not shown

MFI of pHrodo-Red-labelled mouse sclerostin taken up into MDCK cells expressing human Fc gamma receptor IIB and human FcRn (flow cytometry) [5]: 1960 MFI
IC50 (read off the curve); Wnt1-induced TCF/LEF luciferase reporter in HEK293T cells, % Inhibition of mouse SOST [6]: ~9 µg/mL
B7: mabB//mabA_pH2-BS01 (bispecific antibody, human IgG1, kappa)
heavy 1: B5 heavy 1
light 1: B5 light 1
heavy 2: B5 heavy 2
light 2: not shown

IC50 (read off the curve); Wnt1-induced TCF/LEF luciferase reporter in HEK293T cells, % Inhibition of monkey SOST [7]: ~4 µg/mL
B8: mabA-hG2 (antibody, human IgG2, kappa, V domains shown)
VH: EVQLVQSGAEVKKPGASVKVSCKASGYTFTDYNMHWVRQAPGQGLEWMGEINPNSGGAGYNQKFKGRVTMTTDTSTSTAYMELRSLRSDDTAVYYCARLGYDDIYDDWYFDVWGQGTTVTVSS
VL: DIQMTQSPSSLSASVGDRVTITCRASQDISNYLNWYQQKPGKAPKLLIYYTSRLLSGVPSRFSGSGSGTDFTLTISSLQPEDFATYYCQQGDTLPYTFGGGTKVEIKR

binding result [8]: no binding
B9: mabA heavy chain combined with light chain variant A-A-B (antibody, human IgG1, kappa, V domains shown)
VH: B8 VH
VL: B8 VL with G91Y, D92S, T93D, L94Y, Y96W
notes: also called A-A-B with the mabA heavy chain

binding result [8]: binds
B10: mabB heavy chain combined with light chain variant A-A-B (antibody, human IgG1, kappa, V domains shown)
VH: B1 VH
VL: B8 VL with G91Y, D92S, T93D, L94Y, Y96W
notes: also called A-A-B with the mabB heavy chain

koff [9]: 0.1 s⁻¹
B11: amH848/bsH638/abL152 (bispecific antibody)
heavy 1: not shown
heavy 2: not shown
VL: DIQMTQSPSSLSASVGDRVTITCRASEGIHDALAWYQQKPGKAPKLLIYWASTLESGVPSRFSGSGSGTDFTLTISSLQPEDFATYYCQQGDTLPYTFGGGTKVEIK
notes: Biparatopic, common light chain

IC50 (read off the curve); Wnt1-induced TCF/LEF luciferase reporter in HEK293T cells, % Inhibition of human SOST [10]: ~10 µg/mL
koff [9]: 0.028 s⁻¹
B12: amH852/bsH638/abL152 (bispecific antibody)
heavy 1: not shown
heavy 2: not shown
VL: B11 VL
notes: as for B11

koff [11]: 0.00214 s⁻¹
koff [12]: 0.00182 s⁻¹
koff [13]: 0.000805 s⁻¹
koff [14]: 0.00191 s⁻¹
B13: mabA_NpH1 (antibody, V domains shown)
VH: B8 VH with D111H
VL: B11 VL with E27Q, G28D, H30S, D31N, A32Y, A34N, W50H, A51T, T53R, E55L

koff [13]: 0.00486 s⁻¹
koff [14]: 0.00805 s⁻¹
B14: mabA_pH2 (antibody, V domains shown)
VH: B8 VH with G57H, G100H, D103H
VL: B11 VL with E27H, G28D, H30S, D31N, A32Y, A34N, W50Y, A51T, T53R, E55L

IC50 (read off the curve); Wnt1-induced TCF/LEF luciferase reporter in HEK293T cells, % Inhibition of human SOST [10]: ~10 µg/mL
B15: amH852/bsH656/abL152 (bispecific antibody)
heavy 1: not shown
heavy 2: not shown
VL: B11 VL
